In the supplement of paper PMC9112550, “Optimization of the antimicrobial peptide Bac7 by deep mutational scanning” (BMC Biology, 2022):

Tested on: Escherichia coli TOP10
Experiment: shrunken log2 fold change of peptide-encoding DNA abundance (4.5 h post-induction vs induction); higher = less antimicrobial activity (less host growth inhibition)
Conditions: time post-induction: 4.5 h; library: site-saturation at positions 5, 18, 19, 20
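Also: peptides expressed intracellularly from a pBAD plasmid library in pooled LB shake-flask culture, induced with 0.3% L-arabinose, DNA abundance read by NGS, three biological replicates, DESeq2 with apeglm shrinkage.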

Row | Sequence | shrunken log2 fold change
1 | RRIRSRPPRLPRPRPRPQNMPRP | -0.268
2 | RRIRTRPPRLPRPRPRPMMMPRP | 2.94
3 | RRIRLRPPRLPRPRPRPKHQPRP | 0.125
4 | RRIRVRPPRLPRPRPRPALKPRP | 0.253
5 | RRIRVRPPRLPRPRPRPWDTPRP | 0.00866
6 | RRIRARPPRLPRPRPRPFHRPRP | 0.206
7 | RRIRHRPPRLPRPRPRPTGFPRP | 0.0428
8 | RRIRCRPPRLPRPRPRPDELPRP | -0.044
9 | RRIRCRPPRLPRPRPRPKYVPRP | -0.394
10 | RRIRRRPPRLPRPRPRPEEDPRP | -0.0235
11 | RRIRPRPPRLPRPRPRPCKQPRP | -0.0806
12 | RRIRSRPPRLPRPRPRPWIHPRP | -0.338
13 | RRIRVRPPRLPRPRPRPLSRPRP | -0.132
14 | RRIRQRPPRLPRPRPRPLSGPRP | -0.252
15 | RRIRPRPPRLPRPRPRPALFPRP | 0.2
16 | RRIRNRPPRLPRPRPRPDNEPRP | 0.114
17 | RRIRRRPPRLPRPRPRPRTMPRP | 0.221
18 | RRIRPRPPRLPRPRPRPPIAPRP | 0.27
19 | RRIRARPPRLPRPRPRPDHFPRP | -0.148
20 | RRIRWRPPRLPRPRPRPRFAPRP | 0.695
21 | RRIRVRPPRLPRPRPRPMIMPRP | -0.126
22 | RRIRHRPPRLPRPRPRPAVPPRP | 0.0133
23 | RRIRVRPPRLPRPRPRPSNYPRP | -0.342
24 | RRIRYRPPRLPRPRPRPHYYPRP | 0.0204
25 | RRIRKRPPRLPRPRPRPWRQPRP | 0.182

Row | Sequence | shrunken log2 fold change
26 | RRIRLRPPRLPRPRPRPIARPRP | -0.0553
27 | RRIRDRPPRLPRPRPRPEMRPRP | 1.29
28 | RRIRFRPPRLPRPRPRPILYPRP | -0.7
29 | RRIRSRPPRLPRPRPRPLTDPRP | -0.162
30 | RRIRGRPPRLPRPRPRPNCTPRP | 0.172
31 | RRIRNRPPRLPRPRPRPPMLPRP | -0.0624
32 | RRIRFRPPRLPRPRPRPAWIPRP | -0.106
33 | RRIRFRPPRLPRPRPRPHKQPRP | -0.0759
34 | RRIRIRPPRLPRPRPRPLTNPRP | -0.572
35 | RRIRLRPPRLPRPRPRPAKIPRP | -0.143
36 | RRIRMRPPRLPRPRPRPFTIPRP | -0.386
37 | RRIRLRPPRLPRPRPRPNPDPRP | 0.0991
38 | RRIRERPPRLPRPRPRPHMWPRP | -0.0491
39 | RRIRKRPPRLPRPRPRPYSLPRP | -0.0434
40 | RRIRWRPPRLPRPRPRPDCVPRP | 0.197
41 | RRIRARPPRLPRPRPRPALAPRP | 0.554
42 | RRIRQRPPRLPRPRPRPGDYPRP | -0.17
43 | RRIRLRPPRLPRPRPRPYLGPRP | -0.425
44 | RRIRVRPPRLPRPRPRPNLDPRP | -0.0165
45 | RRIRERPPRLPRPRPRPAQCPRP | -0.0401
46 | RRIRRRPPRLPRPRPRPFQGPRP | -0.0527
47 | RRIRLRPPRLPRPRPRPAIAPRP | 0.118
48 | RRIRRRPPRLPRPRPRPYVMPRP | -0.882
49 | RRIRIRPPRLPRPRPRPLFFPRP | -0.374
50 | RRIRDRPPRLPRPRPRPIDMPRP | -0.185

Row | Sequence | shrunken log2 fold change
51 | RRIRDRPPRLPRPRPRPHLWPRP | 0.611
52 | RRIRKRPPRLPRPRPRPIVYPRP | -0.0564
53 | RRIRSRPPRLPRPRPRPTNYPRP | -0.44
54 | RRIRLRPPRLPRPRPRPVDIPRP | -0.183
55 | RRIRMRPPRLPRPRPRPEIQPRP | 0.0386
56 | RRIRFRPPRLPRPRPRPHFQPRP | -0.261
57 | RRIRQRPPRLPRPRPRPEDQPRP | 0.0199
58 | RRIRHRPPRLPRPRPRPKLSPRP | 0.0757
59 | RRIRQRPPRLPRPRPRPMWCPRP | -0.339
60 | RRIRKRPPRLPRPRPRPPKQPRP | 0.202
61 | RRIRKRPPRLPRPRPRPIGCPRP | -0.000243
62 | RRIRDRPPRLPRPRPRPMYCPRP | -0.00227
63 | RRIRDRPPRLPRPRPRPIPPPRP | 0.239
64 | RRIRTRPPRLPRPRPRPRTWPRP | -0.0887
65 | RRIRTRPPRLPRPRPRPGPEPRP | 0.0888
66 | RRIRYRPPRLPRPRPRPACYPRP | -0.553
67 | RRIRIRPPRLPRPRPRPIPKPRP | -0.0993
68 | RRIRFRPPRLPRPRPRPLQFPRP | 0.0763
69 | RRIRNRPPRLPRPRPRPYKYPRP | -0.369
70 | RRIRIRPPRLPRPRPRPRPQPRP | 0.321
71 | RRIRMRPPRLPRPRPRPYQHPRP | 0.0551
72 | RRIRSRPPRLPRPRPRPACEPRP | 0.233
73 | RRIRLRPPRLPRPRPRPGRQPRP | 0.207
74 | RRIRKRPPRLPRPRPRPDQYPRP | 0.0833
75 | RRIRWRPPRLPRPRPRPKCSPRP | 0.0308

Row | Sequence | shrunken log2 fold change
76 | RRIRNRPPRLPRPRPRPIKVPRP | -0.607
77 | RRIRRRPPRLPRPRPRPMNPPRP | 0.212
78 | RRIRFRPPRLPRPRPRPEVEPRP | 0.00408
79 | RRIRQRPPRLPRPRPRPCKLPRP | -0.167
80 | RRIRERPPRLPRPRPRPPGLPRP | 0.433
81 | RRIRQRPPRLPRPRPRPQTWPRP | 0.126
82 | RRIRMRPPRLPRPRPRPTDDPRP | 0.637
83 | RRIRGRPPRLPRPRPRPRRTPRP | 0.67
84 | RRIRPRPPRLPRPRPRPIKTPRP | 0.0751
85 | RRIRSRPPRLPRPRPRPRLVPRP | 0.356
86 | RRIRFRPPRLPRPRPRPRSIPRP | -0.256
87 | RRIRCRPPRLPRPRPRPMDCPRP | -0.0376
88 | RRIRPRPPRLPRPRPRPVSAPRP | 0.249
89 | RRIRRRPPRLPRPRPRPFGDPRP | -0.0397
90 | RRIRNRPPRLPRPRPRPYYNPRP | -1.49
91 | RRIRIRPPRLPRPRPRPKVVPRP | -0.00466
92 | RRIRERPPRLPRPRPRPFIAPRP | -0.2
93 | RRIRARPPRLPRPRPRPREDPRP | 0.879
94 | RRIRCRPPRLPRPRPRPSKIPRP | -0.597
95 | RRIRHRPPRLPRPRPRPFYWPRP | -0.0655
96 | RRIRPRPPRLPRPRPRPMWLPRP | 0.217
97 | RRIRFRPPRLPRPRPRPTYLPRP | -0.243
98 | RRIRSRPPRLPRPRPRPRHWPRP | 0.618
99 | RRIRARPPRLPRPRPRPELFPRP | 0.7
100 | RRIRLRPPRLPRPRPRPETTPRP | 0.182

Row | Sequence | shrunken log2 fold change
101 | RRIRMRPPRLPRPRPRPKYHPRP | -0.488
102 | RRIRPRPPRLPRPRPRPDDKPRP | -0.0729
103 | RRIRDRPPRLPRPRPRPMKNPRP | -0.0366
104 | RRIRLRPPRLPRPRPRPYHIPRP | -0.713
105 | RRIRFRPPRLPRPRPRPSMKPRP | -0.753
106 | RRIRFRPPRLPRPRPRPNGTPRP | -0.419
107 | RRIRRRPPRLPRPRPRPPWWPRP | 0.862
108 | RRIRGRPPRLPRPRPRPTSVPRP | 0.197
109 | RRIRSRPPRLPRPRPRPCYWPRP | -0.121
110 | RRIRFRPPRLPRPRPRPPEIPRP | -0.204
111 | RRIRTRPPRLPRPRPRPDYEPRP | -0.023
112 | RRIRSRPPRLPRPRPRPARVPRP | 0.47
113 | RRIRIRPPRLPRPRPRPDQLPRP | -0.172
114 | RRIRTRPPRLPRPRPRPSHDPRP | -0.459
115 | RRIRRRPPRLPRPRPRPGMFPRP | 0.00289
116 | RRIRSRPPRLPRPRPRPDDWPRP | 0.155
117 | RRIRCRPPRLPRPRPRPNLVPRP | -0.192
118 | RRIRYRPPRLPRPRPRPSMDPRP | -1.85
119 | RRIRHRPPRLPRPRPRPCTCPRP | -0.0115
120 | RRIRKRPPRLPRPRPRPFITPRP | -0.352
121 | RRIRARPPRLPRPRPRPVIQPRP | 0.0904
122 | RRIRKRPPRLPRPRPRPVELPRP | 0.111
123 | RRIRARPPRLPRPRPRPILDPRP | 0.229
124 | RRIRPRPPRLPRPRPRPGPQPRP | 0.521
125 | RRIRRRPPRLPRPRPRPVRLPRP | 1.08

Row | Sequence | shrunken log2 fold change
126 | RRIRWRPPRLPRPRPRPIPLPRP | -0.121
127 | RRIRIRPPRLPRPRPRPRDPPRP | 1.94
128 | RRIRDRPPRLPRPRPRPKSKPRP | -0.105
129 | RRIRPRPPRLPRPRPRPIYCPRP | -0.102
130 | RRIRLRPPRLPRPRPRPGPWPRP | 0.325
131 | RRIRKRPPRLPRPRPRPMGIPRP | -0.00149
132 | RRIRRRPPRLPRPRPRPRSYPRP | 0.0753
133 | RRIRQRPPRLPRPRPRPALMPRP | 0.0376
134 | RRIRARPPRLPRPRPRPDSSPRP | 0.371
135 | RRIRFRPPRLPRPRPRPKLVPRP | 0.147
136 | RRIRQRPPRLPRPRPRPDLQPRP | -0.0429
137 | RRIRKRPPRLPRPRPRPIPKPRP | 0.499
138 | RRIRMRPPRLPRPRPRPCEFPRP | 0.00328
139 | RRIRWRPPRLPRPRPRPYKKPRP | -0.225
140 | RRIRDRPPRLPRPRPRPKYEPRP | -0.00728
141 | RRIRCRPPRLPRPRPRPYLRPRP | -0.00889
142 | RRIRYRPPRLPRPRPRPNCWPRP | -0.36
143 | RRIRGRPPRLPRPRPRPVYFPRP | -0.0244
144 | RRIRPRPPRLPRPRPRPLRRPRP | 0.805
145 | RRIRERPPRLPRPRPRPPFEPRP | 0.363
146 | RRIRMRPPRLPRPRPRPRREPRP | 1.27
147 | RRIRWRPPRLPRPRPRPLCCPRP | 0.0117
148 | RRIRKRPPRLPRPRPRPQQGPRP | 0.23
149 | RRIRHRPPRLPRPRPRPFIGPRP | -0.231
150 | RRIRIRPPRLPRPRPRPISVPRP | 0.0153
